Measured values reported in patent US20230120677.

Molecular target: Clover-SNAP-25-mRuby2 FRET sensor (UniProt P60880)
Sequence of UniProt P60880 (P60880 whole entry, looked up): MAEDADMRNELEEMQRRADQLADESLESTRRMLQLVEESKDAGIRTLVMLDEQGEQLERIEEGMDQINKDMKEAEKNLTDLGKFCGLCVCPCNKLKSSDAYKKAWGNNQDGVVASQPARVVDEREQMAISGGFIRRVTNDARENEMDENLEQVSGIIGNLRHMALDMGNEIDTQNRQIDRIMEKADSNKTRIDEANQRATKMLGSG

Substance: WT tALC (truncated wild-type BoNT/A-LC, residues 1-424)
- % activity relative to WT tALC: 100%
- dynamic range in FRET upon SNAP-25 cleavage: 6-fold emission ratio in 30 minutes
